Assay results from PMC4734682, “Evidence for the Nucleo-Apical Shuttling of a Beta-Catenin Like Plasmodium falciparum Armadillo Repeat Containing Protein” (PLoS ONE, 2016).

Assays:
[1] = biological target: T1, rPfARO (Plasmodium falciparum 3D7) (UniProt C0H4A5); assay: EMSA; settings: EMSA: 10 mM Tris-Cl pH 7.5, 100 mM KCl, 5 mM MgCl2, 2 mM DTT, 6% glycerol, 50 ug/ml BSA, 25 ul; temperature not stated
T1 sequence: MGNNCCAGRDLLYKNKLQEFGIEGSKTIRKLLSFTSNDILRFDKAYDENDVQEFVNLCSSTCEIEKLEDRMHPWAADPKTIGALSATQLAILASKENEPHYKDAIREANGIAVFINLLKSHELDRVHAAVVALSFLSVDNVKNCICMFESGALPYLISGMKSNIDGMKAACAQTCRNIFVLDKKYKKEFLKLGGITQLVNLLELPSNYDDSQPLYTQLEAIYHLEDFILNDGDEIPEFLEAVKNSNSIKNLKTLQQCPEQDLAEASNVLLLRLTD

[2] = biological target: T1, rPfARO (Plasmodium falciparum 3D7); assay: competition; settings: EMSA: 10 mM Tris-Cl pH 7.5, 100 mM KCl, 5 mM MgCl2, 2 mM DTT, 6% glycerol, 50 ug/ml BSA, 25 ul; temperature not stated
[3] = biological target: the molecule itself; assay: non-reducing SDS-PAGE; purified rPfARO run under non-reducing conditions, stained gel and anti-His immunoblot; ~60 kDa dimer band beside the ~32 kDa monomer; dimer band diminished progressively with increasing DTT; both bands confirmed as PfARO by LC-MS
[4] = biological target: the molecule itself; assay: non-reducing SDS-PAGE; immunoblot of parasite lysate under non-reducing conditions with anti-PfARO antibodies; ~60 kDa dimer beside the ~32 kDa monomer

TTTTATATCATTTAATTCATATGTCTTTTCTTTCTTCTTCGCCTTCAGATCATAAGGATCTTGGACCTTTTTTCTTTCCTTCTTTTCAGAACACAAAGATGTACAACTAAAAGCATTGTCTGTATATGTTGAACGATTACTCTTGAAGGATCCCG (double strand) [AT-rich PfgyrA DNA]
binding [1]: binds
binding [2]: binds

B1: Recombinant PfARO (P. falciparum Armadillo Repeats Only protein), full length, C-terminal 6-His tag (natural protein, P. falciparum (strain 3D7), UniProt C0H4A5 1-275, looked up)
chain: MGNNCCAGRDLLYKNKLQEFGIEGSKTIRKLLSFTSNDILRFDKAYDENDVQEFVNLCSSTCEIEKLEDRMHPWAADPKTIGALSATQLAILASKENEPHYKDAIREANGIAVFINLLKSHELDRVHAAVVALSFLSVDNVKNCICMFESGALPYLISGMKSNIDGMKAACAQTCRNIFVLDKKYKKEFLKLGGITQLVNLLELPSNYDDSQPLYTQLEAIYHLEDFILNDGDEIPEFLEAVKNSNSIKNLKTLQQCPEQDLAEASNVLLLRLTD
notes: PfARO, Plasmodium falciparum strain 3D7, PlasmoDB PF3D7_0414900; full length open reading frame of 275 amino acids amplified from 3D7 cDNA; putative NES at residues 198-204 (LVNLLEL); nine cysteines; Cloned NdeI/XhoI into pET-24b; also called rPfARO; ARM Repeats Only; source: E. coli BL21 (DE3) Codon+, purified (Ni-NTA, size exclusion chromatography on Superdex-200); not shown: His6, C-terminal, …
stoichiometry N [3]: 2

B2: Native PfARO parasite protein (natural protein, UniProt C0H4A5 1-275, looked up)
chain: MGNNCCAGRDLLYKNKLQEFGIEGSKTIRKLLSFTSNDILRFDKAYDENDVQEFVNLCSSTCEIEKLEDRMHPWAADPKTIGALSATQLAILASKENEPHYKDAIREANGIAVFINLLKSHELDRVHAAVVALSFLSVDNVKNCICMFESGALPYLISGMKSNIDGMKAACAQTCRNIFVLDKKYKKEFLKLGGITQLVNLLELPSNYDDSQPLYTQLEAIYHLEDFILNDGDEIPEFLEAVKNSNSIKNLKTLQQCPEQDLAEASNVLLLRLTD
notes: PfARO, Plasmodium falciparum strain 3D7, PlasmoDB PF3D7_0414900; native protein detected at ~32 kDa; source: endogenous, P. falciparum 3D7 schizont-stage parasite lysate (detergent based)
stoichiometry N [4]: 2
